Measurements as given in paper PMC8854993, “Acetylation at Lysine 86 of Escherichia coli HUβ Modulates the DNA-Binding Capability of the Protein” (Frontiers in Microbiology, 2021).

B1: Escherichia coli HUα (natural protein, E. coli, UniProt P0ACF0 1-90, looked up)
chain: MNKTQLIDVIAEKAELSKTQAKAALESTLAAITESLKEGDAVQLVGFGTFKVNHRAERTGRNPQTGKEIKIAAANVPAFVSGKALKDAVK
notes: hupA amplified from chromosomal DNA of E. coli BL21(DE3) with primers from the start codon to the last codon, followed by His6; No tag cleavage is described; the printed mass (10,357.5 Da observed, 10,357.8 Da calculated) appears to fit the whole protein with His6; also called HUα2 (homodimer); hupA-His6; source: E. coli BL21-AI, purified (Ni-NTA, cation exchange RESOURCE S)

What was measured:
Escherichia coli HUα = molecular target: B1; assay: SEC; analytical SEC, Agilent Bio SEC-3 column in PBS (10 mM NaPO pH 7.4, 154 mM NaCl), 0.6 mg/mL protein, 20 uL injected, 0.35 mL/min, detection at 214 nm, molecular weight estimated from a standard curve; heterodimers made by mixing purified homodimers 1:1 on ice for 5 min; settings: both partners purified
[1] = molecular target: the molecule itself; assay: as above
HUβ = molecular target: T1, HUβ (Escherichia coli BL21(DE3), UniProt P0ACF4 1-90); assay: EMSA; homodimer; 30 mM Tris pH 7.5, 100 mM NaCl, 0.02% Tween20, 0.5 mg/ml BSA; 30-bp DNA 1 µM, 18°C 10 min, 10% PAGE in TBE; long DNA 250 ng in 15 µL, 37°C 1 h, 0.5% agarose in; settings: protein: recombinant; tags: C-terminal 6xHis; chain copies: 2; three strands; 2-nt gap in bottom strand between S16 and S17; blunt outer ends
T1 sequence: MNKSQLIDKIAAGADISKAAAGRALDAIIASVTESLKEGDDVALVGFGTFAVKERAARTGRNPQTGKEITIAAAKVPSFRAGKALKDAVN

Binder	binding result (Escherichia coli HUα)	stoichiometry N [1]	binding result (HUβ)
Escherichia coli HUβ (natural protein, E. coli, UniProt P0ACF4 1-90, looked up, hupB amplified from chromosomal DNA of E. coli BL21(DE3) with primers from the start codon to the last codon, followed by an XhoI site and His6; The reverse primer carries CTCGAG (XhoI) between hupB and the His codons, so Leu-Glu probably stands before His6; theoretical mass printed 10,290.7 Da; No tag cleavage is described; also called HUβ2 (homodimer); hupB-His6; source: E. coli BL21-AI, …) MNKSQLIDKIAAGADISKAAAGRALDAIIASVTESLKEGDDVALVGFGTFAVKERAARTGRNPQTGKEITIAAAKVPSFRAGKALKDAVN	binds	2	–
Escherichia coli HUβ acetylated at Lys86 (natural protein, E. coli, UniProt P0ACF4 1-90, looked up, acetyl-lysine at 86, from pBAD hupB(K86TAG)-His6, amber codon at Lys86 read as acetyl lysine; Same construct as m2 but with acetyl-lysine at 86; theoretical mass printed 10,332.7 Da; also called HUβ(K86ac); HUβ(K86ac)2 (homodimer)) MNKSQLIDKIAAGADISKAAAGRALDAIIASVTESLKEGDDVALVGFGTFAVKERAARTGRNPQTGKEITIAAAKVPSFRAGKALKDAVN	binds	2	–
Escherichia coli HUβ acetylated at Lys67 (natural protein, E. coli, UniProt P0ACF4 1-90, looked up, acetyl-lysine at 67, from pBAD hupB(K67TAG)-His6, amber codon at Lys67 read as acetyl lysine; Same construct as m2 but with acetyl-lysine at 67; theoretical mass printed 10,332.7 Da; also called HUβ(K67ac); HUβ(K67ac)2 (homodimer)) MNKSQLIDKIAAGADISKAAAGRALDAIIASVTESLKEGDDVALVGFGTFAVKERAARTGRNPQTGKEITIAAAKVPSFRAGKALKDAVN	binds	2	–
B1	–	2	–
30-bp duplex with 2-nt gap (dsDNA, 2-nt gap in bottom strand) DNA 1: CCAACTTCCCTAACCCAGCTGCGATCCGTA DNA 2: TACGGATCGCAGC DNA 3: GGTTAGGGAAGTTGG	–	–	binds
